According to patent publication US20250263444A1, “vIRF3-Derived Peptide and Use Thereof for Preventing or Treating Cancer” (priority 2022, published 2025):

Assays:
PKM2 [1] = molecular target: T1, PKM2 (Homo sapiens, UniProt P14618); experiment: Binding of vIRF3-derived peptide fragments to PKM2 (GST-pull down / immunoprecipitation, FIG. 7); set-up: expressed in transfected cells
From the text: A pCMV-HA-hPKM2 plasmid was provided by from the Miyagi Cancer Center Research Institute, Natori, Japan. In addition, a vIRF3 (Δ250-280) mutant was generated by sequentially deleting 10 amino acids from alanine 250 using a QuikChange XL site-directed mutagenesis kit (Agilent). Primer pairs used in vIRF3 deletion mutation were as follows: vIRF3(Δ250-260) forward 5′-[…]-3′ (SEQ ID NO: 8), vIRF3(Δ250-260) reverse 5′-[…]-3′ (SEQ ID NO: 9), vIRF3(Δ260-270) forward 5′-[…]-3′ (SEQ ID NO: 10), vIRF3(Δ260-270) reverse 5′-[…]-3′ (SEQ ID NO: 11), vIRF3(Δ270-280) forward 5′-[…]-3′ (SEQ ID NO: 12), and vIRF3(Δ270-280) reverse 5′-[…]-3′ (SEQ ID NO: 13). GST-tagged vIRF3 250-260, 260-270, and 270-280 were subcloned into a pEBG-GST vector with BamHI and NotI restriction sites using the following primers: vIRF3(250-260) forward 5′-[…] GGC-3′ (SEQ ID NO: 14), vIRF3(250-260) reverse 5′-[…] CG-3′ (SEQ ID NO: 15), vIRF3(260-270) forward 5′-GATCCGCCACCAT […]-3′ (SEQ ID NO: 16), vIRF3(260-270) reverse 5′-[…] G-3′ (SEQ ID NO: 17), vIRF3(270-280) forward 5′-[…] GC-3′ (SEQ ID NO: 18), and vIRF3 270-280 reverse 5′-[…] GGCG-3′ (SEQ ID NO: 19).
The indicated cells were infected regardless of the presence or absence of combination of plasmids. […] Cell lysates were immunoprecipitated against indicated proteins and analyzed by immunoblotting according to methods known in the art.

LEC-V5-vIRF3 = experiment: Chorioallantoic membrane (CAM) invasion assay; type: in vivo, chick; settings: 0.2 mg peptide at 24 and 48 hours after cell seeding; IHC; FIG. 8D
Procedure: The chick fertilized eggs were incubated at 37.5° C. with 70% humidified atmosphere in a Rcom D-50 incubator (Autoelex). After embryonic day (ED) 5, a 1.5 cm square hole was opened on the eggshell and sealed with a sterile parafilm tape. Embryos were monitored by daily candling. On ED 10, sterile silicone rings were placed onto the CAM of the embryo and added with indicated cells, and then the cells were seeded. 0.2 mg of TAT (a control peptide containing only a TAT sequence of HIV-1 (synthesized by Bionics)) or TAT-VDP according to the present invention (vRIF3-derived aa250-260 peptide bound with a TAT sequence (synthesized by Bionics)) was treated at 24 and 48 hours after cell seeding. Approximately 1 cm^2 of CAM around the silicone ring was harvested and fixed with 4% paraformaldehyde at 4° C. for 24 hours. Thereafter, samples were treated for immunohistochemistry and Hematoxyling and Eosin (H&E) staining.

PKM2 [2] = molecular target: T1, PKM2; experiment: Pyruvate kinase activity assay in LECs treated with TAT or TAT-VDP; type: cell-based; set-up: endogenous in cells; host or cells: E6/E7-immortalised LECs (LEC-V5-vIRF3 or LEC-vector); settings: LEC-V5-vIRF3 cells; VDP fused to HIV-1 TAT; FIG. 8C
Procedure: Pyruvate kinase activity assay was performed with a Pyruvate Kinase Assay Kit (Sigma Aldrich) according to manufacturer's instructions. Briefly, LECs expressing a pCDH vector, vIRF3, and vIRF3(Δ250-280), respectively were harvested and washed twice with 1×PBS. The cells were suspended in 50 μl of a pyruvate kinase assay buffer and incubated for 15 minutes. Cell debris was removed by centrifugation at 13,000 rpm for 15 minutes. The supernatant was transferred to a 96-well plate and added with a kinase assay mixture. Absorbance was measured at 570 nm wavelength using a Varioskan Lux microplate reader (Thermo scientific).

[3] = system: recombinant KSHV-infected LECs; experiment: Xenograft model, subcutaneous peptide administration; type: in vivo, mice
ATP-citrate lyase (ACLY) = experiment: Immunoblotting with anti-acetyl-lysine antibody of LEC stable cell lines treated with ACLY inhibitor; type: cell-based; settings: LEC lines pCDH, V5-vIRF3, V5-vIRF3(Δ250-280) treated with BMS303141
Procedure: Acetyl-CoA is a crucial metabolite that provides acetyl groups for acetylation reaction of proteins including histone. To better understand the importance of acetyl-CoA upregulation by vIRF3 in LEC, first, it was confirmed whether vIRF3 may increase the overall acetylation level in LEC. To this end, cell lysates were analyzed by immunoblotting (IB) using an anti-acetyl-lysine antibody. […] Especially, cytosolic acetyl-CoA, which was involved in lysine acetylation of protein, regulating the activity, stability, or localization of many cell proteins is primarily generated by the translocation of citrate from the mitochondria to the cytoplasm via ATP-citrate lyase (ACLY). Therefore, three LEC stable cell lines encoding expression vectors of pCDH, V5-vIRF3, and V5-vIRF3(Δ250-280) were treated with an ACLY inhibitor BMS303141 and then analyzed by IB with an anti-acetyl-lysine antibody.

tetrameric form of PKM2 = molecular target: T2, tetrameric form of PKM2 (Homo sapiens, UniProt P14618); experiment: PKM2 cross-linking and gradient SDS-PAGE immunoblotting; type: cell-based; settings: LECs expressing vIRF3; FIG. 8B
T2 construct: endogenous in cells; host or cells: E6/E7-immortalised LECs stably expressing V5-vIRF3 by lentivirus (PKM2 endogenous, vIRF3 transduced)
T2 sequence (P14618 2-531 limits assumed): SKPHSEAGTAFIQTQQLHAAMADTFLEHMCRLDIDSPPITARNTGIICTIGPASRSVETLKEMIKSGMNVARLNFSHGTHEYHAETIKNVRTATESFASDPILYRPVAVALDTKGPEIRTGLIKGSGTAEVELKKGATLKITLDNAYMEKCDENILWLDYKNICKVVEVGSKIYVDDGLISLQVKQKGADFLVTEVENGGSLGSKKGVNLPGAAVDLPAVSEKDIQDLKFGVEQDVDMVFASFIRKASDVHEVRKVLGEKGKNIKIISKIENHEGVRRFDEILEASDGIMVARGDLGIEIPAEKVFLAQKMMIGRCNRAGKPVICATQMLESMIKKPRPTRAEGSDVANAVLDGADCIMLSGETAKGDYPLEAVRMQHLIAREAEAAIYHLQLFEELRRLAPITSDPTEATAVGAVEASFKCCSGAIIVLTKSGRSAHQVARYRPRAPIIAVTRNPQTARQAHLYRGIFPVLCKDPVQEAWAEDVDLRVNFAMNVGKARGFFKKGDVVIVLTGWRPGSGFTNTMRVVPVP
Procedure: 293T cells were infected with indicated combination of plasmids and harvested 48 hours after infection. The cells were lysed with a NP40 lysis buffer supplemented with a protease inhibitor (150 mM NaCl, 0.5% NP40, 50 mM pH 8.0 Tris-HCl) and treated with 0.1% glutaraldehyde for 4 minutes at room temperature. Thereafter, gradient SDS-PAGE was performed with NuPAGE 4-12% Bis-Tris gel (Invitrogen) and analyzed by immunoblotting.

T1 sequence (P14618 whole entry, the tested form may be a part): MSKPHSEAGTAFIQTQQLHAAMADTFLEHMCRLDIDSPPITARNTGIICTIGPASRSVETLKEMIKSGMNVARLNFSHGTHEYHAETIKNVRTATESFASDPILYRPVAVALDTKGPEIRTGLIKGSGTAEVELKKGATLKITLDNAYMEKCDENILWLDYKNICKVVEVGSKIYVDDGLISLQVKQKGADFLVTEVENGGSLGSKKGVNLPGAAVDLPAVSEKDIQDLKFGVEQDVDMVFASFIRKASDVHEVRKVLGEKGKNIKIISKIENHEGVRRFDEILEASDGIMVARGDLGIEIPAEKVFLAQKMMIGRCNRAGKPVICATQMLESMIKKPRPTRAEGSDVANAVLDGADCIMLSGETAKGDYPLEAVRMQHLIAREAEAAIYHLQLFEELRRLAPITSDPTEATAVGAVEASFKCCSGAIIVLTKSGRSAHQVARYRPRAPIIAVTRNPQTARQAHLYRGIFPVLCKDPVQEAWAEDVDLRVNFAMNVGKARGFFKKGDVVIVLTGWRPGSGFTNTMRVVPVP

With “vIRF3(260-270): fragment peptide of amino acids 260-270 of KSHV vIRF3 (SEQ ID NO: 4) (EMDMLMRAMCD)” the “binding to PKM2” value (PKM2 [1]) was “mutual-bound to PKM2”.

“vIRF3-derived peptide: vIRF3-derived peptide of SEQ ID NO: 1, included within aa 250-280 of KSHV vIRF3 (ACALMYHVGQEMDMLMRAMCDEDLFDLLGIP)” was tested, and the “invasion of LEC-V5-vIRF3 in CAM (invasive activity)” value (LEC-V5-vIRF3) was “significantly inhibited”, the “PK activity upregulated by vIRF3 expression” value (PKM2 [2]) was “significantly inhibited” and the “size and volume of tumor” value ([3]; subcutaneous injection, animal model transplanted with LECs infected with KSHV) was “significantly reduced”.

With “vIRF3(270-280): fragment peptide of amino acids 270-280 of KSHV vIRF3 (SEQ ID NO: 5) (DEDLFDLLGIP)” the “binding to PKM2” value (PKM2 [1]) was “mutual-bound to PKM2”.

For `COc1ccc(-c2ccccc2)cc1NS(=O)(=O)c1cc(Cl)cc(Cl)c1O` [BMS303141], the “increase of total acetylation levels by vIRF3” value (ATP-citrate lyase (ACLY)) was “the increase of total acetylation levels was not confirmed”.

With “TAT-VDP: vRIF3-derived aa250-260 peptide bound with a TAT sequence of HIV-1 for intracellular delivery (synthesized by Bionics) (RRRQRRKKRGYGEQGVHYMLACA)” the “vIRF3-mediated tetrameric form of PKM2” value (tetrameric form of PKM2) was “sufficiently prevented” and the tumor formation ([3]; 0.2 mg peptide twice per week for 30 days, subcutaneous, FIG. 8E) was “remarkably inhibited”.
